Laboratory results from US20190365920A1 (INSERM INSTITUT NATIONAL DE LA SANT ET DE LA RECHERCHE …, published 2019).

Target: T1, SLITRK6 (SLIT and NTRK-like family, member 6) (human, UniProt Q9H5Y7 27-841)
T1 construct: whole, on cells; Endogenous SLITRK6 at the membrane of A375 BRAF-mutant melanoma cells after treatment with PLX4032, alone or with AZD6244; also called DFNMYP
T1 sequence (looked up): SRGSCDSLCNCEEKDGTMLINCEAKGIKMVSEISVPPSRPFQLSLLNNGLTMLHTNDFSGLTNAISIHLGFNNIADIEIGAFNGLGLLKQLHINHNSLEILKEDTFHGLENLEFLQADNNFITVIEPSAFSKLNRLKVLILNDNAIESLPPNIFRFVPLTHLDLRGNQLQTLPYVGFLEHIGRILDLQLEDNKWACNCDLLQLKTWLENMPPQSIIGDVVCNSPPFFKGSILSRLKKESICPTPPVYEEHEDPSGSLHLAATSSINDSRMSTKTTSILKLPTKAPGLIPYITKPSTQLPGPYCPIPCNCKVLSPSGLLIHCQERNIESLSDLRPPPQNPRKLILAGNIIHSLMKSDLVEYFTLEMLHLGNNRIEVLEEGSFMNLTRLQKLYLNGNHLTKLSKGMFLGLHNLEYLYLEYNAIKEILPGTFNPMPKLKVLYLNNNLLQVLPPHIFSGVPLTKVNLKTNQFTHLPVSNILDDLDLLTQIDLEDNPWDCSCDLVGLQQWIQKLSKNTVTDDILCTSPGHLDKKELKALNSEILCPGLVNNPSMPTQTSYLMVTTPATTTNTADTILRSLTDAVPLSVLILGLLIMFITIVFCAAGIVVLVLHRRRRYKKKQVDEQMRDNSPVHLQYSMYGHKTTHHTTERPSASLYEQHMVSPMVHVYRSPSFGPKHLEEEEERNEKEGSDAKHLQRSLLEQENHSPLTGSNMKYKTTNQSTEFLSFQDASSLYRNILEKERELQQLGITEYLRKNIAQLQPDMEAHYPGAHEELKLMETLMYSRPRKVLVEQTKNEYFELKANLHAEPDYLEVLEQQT
Assay: immunofluorescence staining of A375 cells (si-Ctl or si-SLITRK6) treated with PLX4032 alone or with AZD6244

binding result: binds
B1: Hal5-10acl2 antibody directed against SLITRK6 (antibody, V domains shown)
VH: QVQLVESGGGVVQPGRSLRLSCAASGFTFSSYGMHWVRQAPGKGLEWVAVIWYDGSNQYYADSVKGRFTISRDNSKNTLFLQMHSLRAEDTAVYYCARGLTSGRYGMDVWGQGTTVTVSS
VL: DIVMTQSPLSLPVTPGEPASISCRSSQSLLLSHGFNYLDWYLQKPGQSPQLLIYLGSSRASGVPDRFSGSGSGTDFTLKISRVEAEDVGLYYCMQPLQIPWTFGQGTKVEIKR
notes: It is produced by a CHO cell deposited as ATCC PTA-13102; also called HA15-10acl2; the antibody against SLITRK6
